The text below walks through data of PMC7937890.

This data set concerns T1, RsmE-His6 (Pseudomonas putida KT2440), ORF:50140dbc.
T1 sequence: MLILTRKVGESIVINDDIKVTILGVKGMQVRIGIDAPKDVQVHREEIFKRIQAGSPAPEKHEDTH
The data set can be described thus: EMSA. To be noted: 1x binding buffer (composition only cited), RNA 5 or 10 nM, 30 min at 30 C, with or without 100-fold unlabeled competitor RNA; 6% non-denaturing PAGE in TBE at ….

In the case of “GGGUUCUAAGAUUGGAUCCACUGUUAAUCUUUACCACAUGGACGUUGCGCAGGAAGCGCAAAGGACAGAUCAAGGACGACGACGAAGGACCACCUGCCAGGAUGGCGGGGCGAUACGGAUGUCACAGGGAAACAGUCUGGAAAACCCCGCUUCGGCGGGGGGGGGUUUUUUUUGCGGCCGCUUUU [rsmY full-length RNA]”, the binding result is “binds”.
